Target: Recombinant human glucose-regulated protein GRP78 (human) (UniProt P11021)
Assay: SPR (Biacore T200), recombinant human GRP78 coupled to a CM5 chip, peptide injected at 0.3125-20 µM

Sequence of Recombinant human glucose-regulated protein GRP78 (human) (P11021 19-654 limits assumed): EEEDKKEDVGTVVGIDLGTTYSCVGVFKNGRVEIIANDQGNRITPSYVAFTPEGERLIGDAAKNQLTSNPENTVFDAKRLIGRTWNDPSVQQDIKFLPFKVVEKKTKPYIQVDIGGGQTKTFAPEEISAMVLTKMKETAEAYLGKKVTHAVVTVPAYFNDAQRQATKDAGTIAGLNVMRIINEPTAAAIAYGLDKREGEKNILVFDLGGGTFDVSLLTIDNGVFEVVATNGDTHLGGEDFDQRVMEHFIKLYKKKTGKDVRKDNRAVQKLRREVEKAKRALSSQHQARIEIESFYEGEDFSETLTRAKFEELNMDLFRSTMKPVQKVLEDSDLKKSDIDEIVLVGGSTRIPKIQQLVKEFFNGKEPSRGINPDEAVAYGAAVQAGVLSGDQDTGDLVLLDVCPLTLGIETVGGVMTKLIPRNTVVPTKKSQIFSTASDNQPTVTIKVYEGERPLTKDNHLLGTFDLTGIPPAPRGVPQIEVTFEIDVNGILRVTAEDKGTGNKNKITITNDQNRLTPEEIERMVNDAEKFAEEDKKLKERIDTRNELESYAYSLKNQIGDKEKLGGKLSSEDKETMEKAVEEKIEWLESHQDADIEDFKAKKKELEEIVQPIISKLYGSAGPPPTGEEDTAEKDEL

Kd: 5.22 µM
koff: 0.0283 s⁻¹
Binder: SNTRVAP (all seven residues are D-configuration amino acids (^DS^DN^DT^DR^DV^DA^DP)) [SVAP (D-configuration peptide DS-DN-DT-DR-DV-DA-DP)]
